Source: US20260176659A1, “IMPROVED METHOD FOR THE PRODUCTION OF NATURAL VANILLIN” (BASE SE, priority 2022, published 2026)

Columns and labels:
Format in all cases: biochemical
[1] = Spectrophotometric enzymatic assay: cleaving activity, production of vanillin from coniferyl alcohol at 349 nm; settings: freeze-dried cell free extract incl. buffer salts; vanillin from coniferyl alcohol
Method: Stock solution 200× of coniferyl alcohol (90 mg) was prepared in ethanol (5 mL) and stored at −20° C. From this, a new stock solution 20× of coniferyl alcohol (10 mM) was freshly prepared by 1:10 dilution in Glycine-NaOH (50 mM, pH 9.0). A cuvette containing 0.750 mL Glycine-NaOH (50 mM, pH 9.0) and 0.05 mL of the substrate 20× stock was pre-warmed at 25° C. for 1.5 mins. Then, the reaction was initiated by the addition of 0.2 mL of the enzyme sample. The cleaving […] activity was measured spectrophotometrically following the production of vanillin at 349 nm (ε349=26.7 mM^−1cm^−1 experimentally determined). One unit of activity (U) is defined as the amount of enzyme required to produce 1 μmol of vanillin per min. Agilent Cary 60 UV-Vis Spectrophotometer was used for all the measurements.
Searching for alternative novel alkene cleavage oxygenases (COs) catalysing the formation of vanillin from coniferyl alcohol was performed. A set of 27 sequences and 10 COs from different branches of the phylogenetic tree were selected, named CO-02-11. Two additional enzymes were included, which are located in different clusters of the phylogenetic tree: Lignostillbene dioxygenase from Pseudomonas brassicaceraum (PbLSD, PDB: 5V2D) and aromatic dioxygenase (Ado, CO-01) from Thermothelomyces thermophilus (GenBank ID: XP_003665585). The proteins were recombinantly expressed in E. coli BL21(DE3), following the same protocol developed for IECO. […] Putative COs were screened by spectrophotometric assay, monitoring the formation of 3a upon 2a cleavage. From a set of twelve COs, four positive hits, namely CO-01, CO-03, CO-06 and CO-07 were found. Positive variants were tested in the one pot cascade and compared them with IECO In agreement with the spectrophotometric screening, all four COs converted eugenol 1a to vanillin 3a (Table 8). The first step of the cascade is efficiently performed by EUGO, and the substrate is completely consumed. […] Overall, 70±3% conversion of 1a to vanillin 3a was achieved.

[2] = Biotransformation of coniferyl alcohol to vanillin catalysed by IECO (5 mM); settings: 5 mM 2a; for Consumption of 2a / Conversion of 2a to 3a (%) / Conversion of 2a to 5a (%) / Reaction composition at 24 hours (%) 2a / Reaction composition at 24 hours (%) 3a / Reaction composition at 24 hours (%) 5a: pH 9.0
Method: 180 mg of coniferyl alcohol were weighted and dissolved in 10 mL ethanol and stored at −20° C. (stock 100 mM). The reaction mixtures (0.5 mL) were set up in 1.5 mL glass vials as follows: […] (50 mM, pH 9.0) together with sodium ascorbate (1 mM), FeSO4 (1 mM) and bovine liver catalase (Sigma C40, 0-10 mg/mL). The reaction was initiated by the addition of coniferyl alcohol stock (0.025 mL, final concentration 5 mM), then it was incubated for 24 hours at 30° C. and 120 rpm (rotary shaker). Note that the reaction contained 5% v/v ethanol deriving from the substrate stock. To improve the oxygenation, the vials were placed horizontally. At certain time points, reaction samples were taken and quenched with methanol (2 vol. equivalents). The mixture was centrifuged for 5-10 mins at 20238 g. Then supernatant was finally transferred in a HPLC vial for analysis.

[3] = Biotransformation of isoeugenol to vanillin: pH and solvent screening
Method: Stock solution of rac-isoeugenol (100 mM) was prepared in DMSO and stored at 4° C. Each reaction mixtures (1 mL) were set up as follows: rac-isoeugenol (50 μL, final concentration 5 mM) was diluted in various buffers (100 mM, pH 7.0-10.5) in 4 mL glass vials, together with FeSO4 (0.5 mM) and DMSO (150 μL; final concentration including the part from substrate stock: 20% v/v). The reaction was initiated by the addition of IECO (cell free extract 1 mg/mL). Wild type E. coli BL21 (DE3) was used as negative control. The reaction was incubated for 24 hours at 30° C. and 120 rpm (rotary shaker). To improve the oxygenation, the vials were placed horizontally. The reaction was quenched with methanol (2 vol. equiv.), centrifuged at 20238 g for 5-10 mins and analysed by HPLC.
Stock solutions of rac-isoeugenol (100 mM) were prepared in different solvents and stored in the dark at 4° C. Each reaction mixtures (1 mL) were set up as follows: ra-isoeugenol (50 μL, final concentration 5 mM) was diluted in Glycine-NaOH (100 mM, pH 9.5) in 4 mL glass vials, together with FeSO4 (0.5 mM) and the respective cosolvent (0, 50 or 150 μL; final content of cosolvent including the part from the substrate stock: 5, 10 and 20% v/v). The reaction was initiated by the addition of IECO (cell free extract 1 mg/mL). […] The reaction was quenched with methanol (2 vol. equiv.), centrifuged at 20238 g and analysed by HPLC.

[4] = IECO CFE Fresh 1 mg/mL, 24 h, non-optimised
[5] = IECO CFE Fresh 2 mg/mL, 24 h, non-optimised
[6] = IECO CFE Stored at −20° 2 mg/mL, 24 h, non-optimised
[7] = IECO CFE Stored at −20° C. 3 mg/mL, 24 h, non-optimised
[8] = IECO fresh CFE 1 mg/mL, catalase 0 mg/mL
[9] = IECO fresh CFE 1 mg/mL, catalase 2 mg/mL
[10] = IECO fresh CFE 1 mg/mL, catalase 10 mg/mL
[11] = IECO fresh CFE 2 mg/mL, catalase 0 mg/mL
[12] = IECO fresh CFE 2 mg/mL, catalase 2 mg/mL
[13] = IECO fresh CFE 2 mg/mL, catalase 10 mg/mL
[14] = IECO fresh CFE 4 mg/mL, catalase 0 mg/mL
[15] = IECO fresh CFE 4 mg/mL, catalase 2 mg/mL
[16] = IECO fresh CFE 4 mg/mL, catalase 10 mg/mL

B1: IECO: isoeugenol cleavage oxygenase from Pseudomonas nitroreducens (GenBank: ACP17973), SEQ ID NO: 24 (protein, listed as Pseudomonas nitroreducens)
chain: MARLNRNDPQLVGTLLPTRIEADLFDLEVDGEIPKSINGTFYRNTPEPQVTPQKFHTFIDGDGMASAFHFEDGHVDFISRWVKTARFTAERLARKSLFGMYRNPYTDDTSVKGLDRTVANTSIISHHGKVLAVKEDGLPYELDPRTLETRGRFDYDGQVTSQTHTAHPKYDPETGDLLFFGSAAKGEATPDMAYYIVDKHGKVTHETWFEQPYGAFMHDFAITRNWSIFPIMPATNSLSRLKAKQPIYMWEPELGSYIGVLPRRGQGSQIRWLKAPALWVFHVVNAWEVGTKIYIDLMESEILPFPFPNSQNQPFAPEKAVPRLTRWEIDLDSSSDEIKRTRLHDFFAEMPIMDFRFALQCNRYGFMGVDDPRKPLAHQQAEKIFAYNSLGIWDNHRGDYDLWYSGEASAAQEPAFVPRSPTAAEGDGYLLTVVGRLDENRSDLVILDTQDIQSGPVATIKLPFRLRAALHGCWVPRP
Specific Activity (mU/mg of FD-CFE) [1]: 2.8 mU/mg
vanillin afforded ([2]; IECO 4 mg CFE/mL in the presence of catalase, 24 h): 3.6 ± 0.6 mM
Consumption of 2a [2, 4]: 24%
Conversion of 2a to 3a (%) [2, 4]: 9%
Consumption of 2a [2, 5]: 45%
Conversion of 2a to 3a (%) [2, 5]: 17%
Consumption of 2a [2, 6]: 12%
Conversion of 2a to 3a (%) [2, 6]: 4%
Conversion of 2a to 5a (%) [2, 6]: 1%
Consumption of 2a [2, 7]: 18%
Conversion of 2a to 3a (%) [2, 7]: 5%
Conversion of 2a to 5a (%) [2, 7]: 13%
Reaction composition at 24 hours (%) 2a [2, 8]: 46 ± 3%
Reaction composition at 24 hours (%) 3a [2, 8]: 51 ± 3%
Reaction composition at 24 hours (%) 5a [2, 8]: 3 ± 1%
Conversion of 2a to 3a (%) ([2]; IECO fresh CFE 1 mg/mL, catalase 0 mg/mL, 24 h): 38 ± 4%
Reaction composition at 24 hours (%) 2a [2, 9]: 41 ± 6%
Reaction composition at 24 hours (%) 3a [2, 9]: 58 ± 6%
Reaction composition at 24 hours (%) 5a [2, 9]: 1 ± 0.1%
Conversion of 2a to 3a (%) ([2]; IECO fresh CFE 1 mg/mL, catalase 2 mg/mL, 24 h): 44 ± 5%
Reaction composition at 24 hours (%) 2a [2, 10]: 41 ± 3%
Reaction composition at 24 hours (%) 3a [2, 10]: 58 ± 1%
Reaction composition at 24 hours (%) 5a [2, 10]: 1 ± 0.1%
Conversion of 2a to 3a (%) ([2]; IECO fresh CFE 1 mg/mL, catalase 10 mg/mL, 24 h): 45 ± 3%
Reaction composition at 24 hours (%) 2a [2, 11]: 25 ± 4%
Reaction composition at 24 hours (%) 3a [2, 11]: 71 ± 4%
Reaction composition at 24 hours (%) 5a [2, 11]: 5 ± 1%
Conversion of 2a to 3a (%) ([2]; IECO fresh CFE 2 mg/mL, catalase 0 mg/mL, 24 h): 53 ± 3%
Reaction composition at 24 hours (%) 2a [2, 12]: 27 ± 3%
Reaction composition at 24 hours (%) 3a [2, 12]: 72 ± 3%
Reaction composition at 24 hours (%) 5a [2, 12]: 1 ± 0.3%
Conversion of 2a to 3a (%) ([2]; IECO fresh CFE 2 mg/mL, catalase 2 mg/mL, 24 h): 58 ± 3%
Reaction composition at 24 hours (%) 2a [2, 13]: 22 ± 4%
Reaction composition at 24 hours (%) 3a [2, 13]: 77 ± 4%
Reaction composition at 24 hours (%) 5a [2, 13]: 1 ± 0.1%
Conversion of 2a to 3a (%) ([2]; IECO fresh CFE 2 mg/mL, catalase 10 mg/mL, 24 h): 59±3%
Reaction composition at 24 hours (%) 2a [2, 14]: 9.1 ± 3%
Reaction composition at 24 hours (%) 3a [2, 14]: 82 ± 5%
Reaction composition at 24 hours (%) 5a [2, 14]: 9 ± 4%
Conversion of 2a to 3a (%) ([2]; IECO fresh CFE 4 mg/mL, catalase 0 mg/mL, 24 h): 56 ± 10%
Reaction composition at 24 hours (%) 2a [2, 15]: 11 ± 3%
Reaction composition at 24 hours (%) 3a [2, 15]: 84 ± 5%
Reaction composition at 24 hours (%) 5a [2, 15]: 5 ± 4%
Conversion of 2a to 3a (%) ([2]; IECO fresh CFE 4 mg/mL, catalase 2 mg/mL, 24 h): 62 ± 10%
Reaction composition at 24 hours (%) 2a [2, 16]: 13 ± 1%
Reaction composition at 24 hours (%) 3a [2, 16]: 86 ± 13%
Reaction composition at 24 hours (%) 5a [2, 16]: 1 ± 0.1%
pH optimum of activity toward isoeugenol ([3]; rac-isoeugenol 5 mM, buffers pH 7.0-10.5): 9.0
cosolvent tolerance, activity toward isoeugenol ([3]; solvent screening 5, 10 and 20% v/v): tolerates a panel of cosolvents, with a preference for ethanol and DMSO
